Test results taken from US20240270821A1, “GIP/GLP1/GCG TRI-RECEPTOR AGONISTS AND USES THEREOF” (priority 2023, published 2024).
Starred links: 1 amine or outer side, 2 acyl side, 3 side chain; linkers in the order of their positions; H or OH if unused. Non-standard residues stand in square brackets, D forms with d. Groups on a side chain read outwards from the residue. No end group written: not given here. *: point of attachment. C20 diacid = O=C(O)CCCCCCCCCCCCCCCCCCC(=O)*; C18 diacid = O=C(O)CCCCCCCCCCCCCCCCC(=O)*; γGlu = O=C(O)[C@H](CCC(=O)[*:2])N[*:1]; αMe4Pal = C[C@](N)(Cc1ccncc1)C(=O)O; αMeY = C[C@](N)(Cc1ccc(O)cc1)C(=O)O; 4Pal = N[C@@H](Cc1ccncc1)C(=O)O; αMeL = CC(C)C[C@](C)(N)C(=O)O; Orn = NCCC[C@H](N)C(=O)O; AEEA = NCCOCCOCC(=O)O; Aib = CC(C)(N)C(=O)O

T1: hGIPR (Homo sapiens, UniProt P48546)
T1 sequence (P48546 22-466): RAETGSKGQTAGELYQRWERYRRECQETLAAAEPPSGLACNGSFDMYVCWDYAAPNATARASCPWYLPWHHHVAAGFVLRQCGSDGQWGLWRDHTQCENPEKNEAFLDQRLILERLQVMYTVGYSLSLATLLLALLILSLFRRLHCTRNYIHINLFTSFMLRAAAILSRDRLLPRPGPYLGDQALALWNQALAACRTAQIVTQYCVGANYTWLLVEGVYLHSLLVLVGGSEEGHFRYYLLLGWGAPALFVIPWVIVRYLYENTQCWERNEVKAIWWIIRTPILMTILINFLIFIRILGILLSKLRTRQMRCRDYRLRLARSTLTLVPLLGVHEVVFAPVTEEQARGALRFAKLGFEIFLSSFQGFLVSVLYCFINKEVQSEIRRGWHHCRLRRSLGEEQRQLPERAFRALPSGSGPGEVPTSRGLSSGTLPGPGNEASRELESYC

T2: human GIP receptor (human) (UniProt P48546)
T2 sequence (looked up): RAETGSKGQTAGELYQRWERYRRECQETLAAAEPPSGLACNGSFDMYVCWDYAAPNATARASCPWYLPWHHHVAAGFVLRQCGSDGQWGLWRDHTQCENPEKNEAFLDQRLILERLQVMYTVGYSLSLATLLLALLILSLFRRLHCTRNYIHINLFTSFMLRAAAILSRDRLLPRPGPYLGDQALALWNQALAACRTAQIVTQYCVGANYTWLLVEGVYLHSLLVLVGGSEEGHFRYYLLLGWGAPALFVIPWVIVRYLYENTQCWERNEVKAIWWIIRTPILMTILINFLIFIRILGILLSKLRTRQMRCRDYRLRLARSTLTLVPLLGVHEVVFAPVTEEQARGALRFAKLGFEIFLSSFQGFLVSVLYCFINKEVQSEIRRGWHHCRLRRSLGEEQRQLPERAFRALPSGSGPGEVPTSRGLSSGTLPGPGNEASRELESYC


How the values were obtained:
hGIPR [1] = target: T1, hGIPR; assay: Functional cAMP activity in the presence of 1% HSA; assay type: cell-based; settings: read-out: cAMP Rel EC50, hGIPR
human GcgR = human GcgR (Homo sapiens, UniProt P47871); assay: Functional cAMP activity in the presence of 1% HSA; assay type: cell-based; settings: read-out: cAMP Rel EC50, hGcgR
hGIPR [2] = target: T1, hGIPR; assay: Functional cAMP activation in the presence of 0.1% casein (no HSA); assay type: cell-based; settings: in the presence of 0.1% casein (no HSA); geometric mean; read-out: Relative cAMP EC50, hGIPR;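 for Relative cAMP EC50, hGIPR: intracellular cAMP rise after 30 min at 37 °C read by HTRF against a standard curve, scaled between buffer alone (0%) and top control ligand concentration (100%), four-parameter fit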;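 for Relative cAMP EC50, hGcgR: intracellular cAMP rise after 30 min at 37 °C, read by HTRF against a cAMP standard curve, scaled from buffer only (0%) to maximal control ligand response (100%)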
Procedure: After a 30-minute incubation at 37° C., the resulting increase in intracellular cAMP is quantitatively determined using the CisBio CAMP Dynamic 2 HTRF Assay Kit (62AM4PEJ). Briefly, cAMP levels within the cell are detected by adding the cAMP-d2 conjugate in cell lysis buffer followed by the antibody anti-cAMP-Eu^3+-Cryptate, also in cell lysis buffer.
Intracellular cAMP levels are determined by extrapolation using a standard curve. Dose response curves of compounds are plotted as the percentage of stimulation normalized to minimum (buffer only) and maximum (maximum concentration of each control ligand) values and analyzed using a four parameter non-linear regression fit with a variable slope (Genedata Screener 13). EC50 is the concentration of compound causing half-maximal simulation in a dose response curve. Each relative EC50 value for the Geometric mean calculation is determined from a curve fitting.

hGcgR = hGcgR (Homo sapiens, UniProt P47871); assay: as above; assay type: cell-based; settings: in the presence of 0.1% casein (no HSA); geometric mean; read-out: Relative cAMP EC50, hGcgR;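 note: intracellular cAMP rise after 30 min at 37 °C, read by HTRF against a cAMP standard curve, scaled from buffer only (0%) to maximal control ligand response (100%)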
human GLP1-R = human GLP1-R (Homo sapiens, UniProt P43220); assay: GLP1-R internalization assay in HEK293 cells; assay type: cell-based; settings: for EC50: HEK293 cells expressing SNAP-GLP-1R, read-out: GLP1R Internalization EC50; for Internalization % TOP: normalized to maximum concentration of GLP-1 (100%)
hGLP-1R [3] = target: T3, hGLP-1R (Homo sapiens, UniProt P43220); assay: Functional cAMP activation in the presence of 0.1% casein (no HSA); assay type: cell-based; settings: in the presence of 0.1% casein (no HSA); geometric mean; read-out: Relative cAMP EC50, hGLP-1R;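 note: intracellular cAMP rise after 30 min at 37 °C read by HTRF, normalized between buffer only (0%) and maximal control ligand (100%), four-parameter variable-slope fit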
hGLP-1R [4] = target: T3, hGLP-1R; assay: Functional cAMP activity in the presence of 1% HSA; assay type: cell-based; settings: read-out: cAMP Rel EC50, hGLP-1R
[5] = target: human GLP-1R (SNAP-GLP-1R expressed in HEK293 cells) (human) (UniProt P43220); assay: cell-based or functional assay
[6] = target: human glucagon receptor (human) (UniProt P47871); assay: cell-based or functional assay
[7] = target: T2, human GIP receptor (human); assay: cell-based or functional assay
hGLP-1R [8] = target: T3, hGLP-1R; assay: cell-based or functional assay

human GLP-1R (SNAP-GLP-1R expressed in HEK293 cells) (human), sequence (P43220 24-463): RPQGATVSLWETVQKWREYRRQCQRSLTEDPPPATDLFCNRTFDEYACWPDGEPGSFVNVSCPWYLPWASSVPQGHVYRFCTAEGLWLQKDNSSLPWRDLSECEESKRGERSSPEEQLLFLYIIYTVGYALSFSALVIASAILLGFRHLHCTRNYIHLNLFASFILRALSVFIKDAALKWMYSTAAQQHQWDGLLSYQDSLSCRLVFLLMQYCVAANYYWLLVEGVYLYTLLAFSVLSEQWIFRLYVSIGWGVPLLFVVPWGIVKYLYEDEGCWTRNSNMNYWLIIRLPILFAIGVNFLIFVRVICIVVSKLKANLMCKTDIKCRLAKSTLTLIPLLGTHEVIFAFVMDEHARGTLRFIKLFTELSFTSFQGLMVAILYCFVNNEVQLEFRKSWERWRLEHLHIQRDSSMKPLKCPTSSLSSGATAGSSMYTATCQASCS
T3 sequence (P43220 24-463): as above
human GLP1-R, sequence (P43220 24-463): as above
human glucagon receptor (human), sequence (P47871 26-477): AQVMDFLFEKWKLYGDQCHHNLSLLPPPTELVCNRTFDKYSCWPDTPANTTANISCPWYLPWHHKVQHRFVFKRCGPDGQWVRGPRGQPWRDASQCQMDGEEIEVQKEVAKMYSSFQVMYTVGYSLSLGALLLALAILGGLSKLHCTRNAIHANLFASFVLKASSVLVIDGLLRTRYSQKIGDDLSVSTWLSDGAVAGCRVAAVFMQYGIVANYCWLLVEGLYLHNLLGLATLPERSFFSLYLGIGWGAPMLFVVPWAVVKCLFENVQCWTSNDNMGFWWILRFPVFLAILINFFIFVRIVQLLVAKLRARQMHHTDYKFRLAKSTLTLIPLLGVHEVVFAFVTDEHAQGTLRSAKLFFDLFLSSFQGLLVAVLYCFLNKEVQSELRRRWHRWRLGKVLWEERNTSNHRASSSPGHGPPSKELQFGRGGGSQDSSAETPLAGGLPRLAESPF
human GcgR, sequence (P47871 26-477): as above
hGcgR, sequence (P47871 26-477): as above

| Molecule | GLP1R Internalization EC50 [5] [nM] | Internalization % TOP [5] [%] | Relative cAMP EC50 [6] [nM] | Relative cAMP EC50 [7] [nM] | Relative cAMP EC50 (hGLP-1R [8]) [nM] | cAMP Rel EC50, nM (in the presence of 1% HSA) [6] [nM] | cAMP Rel EC50, nM (in the presence of 1% HSA) [7] [nM] | cAMP Rel EC50, nM (in the presence of 1% HSA) (hGLP-1R [8]) [nM] | also measured |
| --- | --- | --- | --- | --- | --- | --- | --- | --- | --- |
| Y[Aib]QGTFTSD[4Pal]SK[αMeL]LDKK([AEEA-γGlu-C20 diacid])AQ[Aib]AFIEYLLAGGPSSGEPPPSGE-NH2 [Example 28] |  |  |  |  |  |  |  |  | EC50 (hGIPR [1]): 63.8 nM; EC50 (human GcgR): 1550 nM; EC50 (hGIPR [2]): 0.255 nM; EC50 (hGcgR): 12.6 nM; EC50 (human GLP1-R): 81.8 nM; Internalization % TOP (human GLP1-R): 76.2%; EC50 (hGLP-1R [3]): 3.68 nM; EC50 (hGLP-1R [4]): 686 nM |
| Y[Aib]QGTFTSD[4Pal]SQ[αMeL]LD[Orn]K([γGlu-γGlu-C18 diacid])AQ[αMe4Pal]QFIE[αMeY]LIEGGPSSGEPPPSGSEE-NH2 [Example 1026] |  |  |  |  |  |  |  |  | EC50 (hGIPR [1]): 61.3 nM; EC50 (human GcgR): 2080 nM; EC50 (hGIPR [2]): 0.308 nM; EC50 (hGcgR): 6.32 nM; EC50 (human GLP1-R): 47.4 nM; Internalization % TOP (human GLP1-R): 80%; EC50 (hGLP-1R [3]): 1.77 nM; EC50 (hGLP-1R [4]): 299 nM |
| YXQGTFTSDXSQXLDXKAQXQFIEXLIEGGPSSGEPPPSGSEE (non-natural residues, lipidated Lys, C-terminal amide; synthetic construct; SITE 2: note = 2-Aminoisobutyric Acid; SITE 10: note = 3-(4-Pyridyl)-L-alanine; SITE 13: note = alpha-methyl-leucine; SITE 16: note = L-ornithine; SITE 17: note = Lysine is chemically modified through conjugation of the epsilon-amino group of the Lysine side chain with (gamma-Gl)) [Example 1026] | 47.4 | 80 | 6.32 | 0.308 | 1.77 |  |  |  | cAMP Rel EC50, nM (1% HSA) [6]: 2080 nM; cAMP Rel EC50, nM (1% HSA) [7]: 61.3 nM; cAMP Rel EC50, nM (1% HSA) (hGLP-1R [8]): 299 nM |
| YXQGTXTSDXSIXLDXKAQXXFIEXLIEGGPSSGEPPPETE (synthetic construct; SITE 2: note = 2-Aminoisobutyric Acid; SITE 6: note = alpha-methyl-2-fluoro-L-phenylalanine; SITE 10: note = 3-(4-Pyridyl)-L-alanine; SITE 13: note = alpha-methyl-leucine; SITE 16: note = L-ornithine; SITE 17: note = Lysine is chemically modified through conjugation of the epsil) [Example 686] | 33.2 | 101 |  |  |  |  |  |  | cAMP Rel EC50 (1% HSA) [6]: 169 nM; cAMP Rel EC50 (1% HSA) [7]: 0.542 nM; cAMP Rel EC50 (1% HSA) (hGLP-1R [8]): 19.1 nM |
| YXQGTFTSDXSXXLDKKAQXAFIEWLLEGGPSSGEPPPSGE (synthetic construct; SITE 2: note = 2-Aminoisobutyric Acid; SITE 10: note = 3-(4-Pyridyl)-L-alanine; SITE 12: note = L-ornithine; SITE 13: note = alpha-methyl-leucine; SITE 17: note = Lysine is chemically modified through conjugation of the epsilon-amino group of the Lysine side chain with (2-[2-(2-) [Example 115] | 255 | 56.5 | 10.6 | 0.457 | 7.6 | 2210 | 73.9 | 1460 |  |
| YXQGTFTSDFSXXLDKKAQXAFIEYLLEAGPSSGEPPPSGE (synthetic construct; SITE 2: note = 2-Aminoisobutyric Acid; SITE 12: note = L-ornithine; SITE 13: note = alpha-methyl-leucine; SITE 17: note = Lysine is chemically modified through conjugation of the epsilon-amino group of the Lysine side chain with (2-[2-(2-Amino-ethoxy)-ethoxy]-acetyl)2-(gamma-Glu)) [Example 117] | 45.5 | 51 | 4.75 | 0.267 | 6.4 | 867 | 29.9 | 524 |  |
| YXQGTFTSDFSXXLDKKAQXAFIEYLLEAGPSSGEPPPSEG (synthetic construct; SITE 2: note = 2-Aminoisobutyric Acid; SITE 12: note = L-ornithine; SITE 13: note = alpha-methyl-leucine; SITE 17: note = Lysine is chemically modified through conjugation of the epsilon-amino group of the Lysine side chain with (2-[2-(2-Amino-ethoxy)-ethoxy]-acetyl)2-(gamma-Glu)) [Example 116] | 80.7 | 46.2 | 3.96 | 0.382 | 7.83 | 882 | 40.4 | 401 |  |
| YXQGTXTSDXXIXLDXKAQXEFIEXLIEGGPSSGAPPPSGSE (synthetic construct; SITE 2: note = 2-Aminoisobutyric Acid; SITE 6: note = alpha-methyl-2-fluoro-L-phenylalanine; SITE 10: note = 3-(4-Pyridyl)-L-alanine; SITE 11: note = alpha-methyl-L-serine; SITE 13: note = alpha-methyl-leucine; SITE 16: note = L-ornithine; SITE 17: note = Lysine is chemically mo) [Example 712] | 35.3 | 109 |  |  |  |  |  |  |  |
| YXQGTFTSDYSKXLDKKAQXAFIEYLLEGGESSGAPPPSGS (synthetic construct; SITE 2: note = 2-Aminoisobutyric Acid; SITE 13: note = alpha-methyl-leucine; SITE 17: note = Lysine is chemically modified through conjugation of the epsilon-amino group of the Lysine side chain with (2-[2-(2-Amino-ethoxy)-ethoxy]-acetyl)-(gamma-Glu)-CO-(CH2) 16-CO2H; SITE 20: n) [Example 358] | 21.5 | 83.1 | 2.78 | 0.182 | 2.31 |  |  |  | cAMP Rel EC50, nM (1% HSA) [6]: 876 nM; cAMP Rel EC50, nM (1% HSA) [7]: 38.8 nM; cAMP Rel EC50, nM (1% HSA) (hGLP-1R [8]): 492 nM |
| YXQGTFTSDFSXXLDKKAQXAFIEYLLEXGPSSGAPPPSGE (synthetic construct; SITE 2: note = 2-Aminoisobutyric Acid; SITE 12: note = L-ornithine; SITE 13: note = alpha-methyl-leucine; SITE 17: note = Lysine is chemically modified through conjugation of the epsilon-amino group of the Lysine side chain with (2-[2-(2-Amino-ethoxy)-ethoxy]-acetyl)2-(gamma-Glu)) [Example 111] | 49.1 | 46.4 | 4.25 | 0.0888 | 5.06 | 1260 | 10.4 | 878 |  |
| YXQGTFTSDXSRXLDKKAQXAFIEYLLAGGPSSGAPPPSGE (synthetic construct; SITE 2: note = 2-Aminoisobutyric Acid; SITE 10: note = 3-(4-Pyridyl)-L-alanine; SITE 13: note = alpha-methyl-leucine; SITE 17: note = Lysine is chemically modified through conjugation of the epsilon-amino group of the Lysine side chain with (2-[2-(2-Amino-ethoxy)-ethoxy]-acetyl)) [Example 113] | 39.5 | 64.6 | 12 | 0.24 | 3.93 | 2090 | 32.3 | 467 |  |
